# B1: Gamma-aminobutyric acid receptor subunit beta-3 (Rattus norvegicus (Rat)), P63079 (parent)
# chain: MWGFAGGRLFGIFSAPVLVAVVCCAQSVNDPGNMSFVKETVDKLLKGYDIRLRPDFGGPPVCVGMNIDIASIDMVSEVNMDYTLTMYFQQYWRDKRLAYSGIPLNLTLDNRVADQLWVPDTYFLNDKKSFVHGVTVKNRMIRLHPDGTVLYGLRITTTAACMMDLRRYPLDEQNCTLEIESYGYTTDDIEFYWRGGDKAVTGVERIELPQFSIVEHRLVSRNVVFATGAYPRLSLSFRLKRNIGYFILQTYMPSILITILSWVSFWINYDASAARVALGITTVLTMTTINTHLRETLPKIPYVKAIDMYLMGCFVFVFLALLEYAFVNYIFFGRGPQRQKKLAEKTAKAKNDRSKSEINRVDAHGNILLAPMDVHNEMNEVAGSVGDTRNSAISFDNSGIQYRKQSMPKEGHGRYMGDRSIPHKKTHLRRRSSQLKIKIPDLTDVNAIDRWSRIVFPFTFSLFNLVYWLYYVN
# Variants of: B1
# Settings: with ap2m1_rat Ap2m1, P84092
# Chain of ap2m1_rat Ap2m1, P84092 (P84092 whole entry): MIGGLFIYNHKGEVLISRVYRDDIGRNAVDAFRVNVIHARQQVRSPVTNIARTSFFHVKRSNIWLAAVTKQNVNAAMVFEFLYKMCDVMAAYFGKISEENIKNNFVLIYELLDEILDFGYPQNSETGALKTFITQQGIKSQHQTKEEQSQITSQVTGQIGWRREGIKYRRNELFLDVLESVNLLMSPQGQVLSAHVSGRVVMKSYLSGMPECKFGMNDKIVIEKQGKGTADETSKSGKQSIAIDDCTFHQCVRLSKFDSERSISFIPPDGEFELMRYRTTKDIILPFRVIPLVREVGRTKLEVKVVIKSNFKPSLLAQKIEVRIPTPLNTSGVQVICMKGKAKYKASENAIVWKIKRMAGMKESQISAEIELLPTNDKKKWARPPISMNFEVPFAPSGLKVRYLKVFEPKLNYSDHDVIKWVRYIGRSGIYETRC
row,effect of a mutation on the interaction,Variant
1,decreasing interaction strength,S432A;S433A
